Biological target: T1, human CLEC-2 (C-type lectin-like receptor 2) (human, UniProt Q9P126 1-229)
T1 construct: whole, on cells; also called T-REx human CLEC-2 expressing 293 cells
Test: column 'CLEC-2 binding' of the summary Table 10

T1 sequence (Q9P126 whole entry): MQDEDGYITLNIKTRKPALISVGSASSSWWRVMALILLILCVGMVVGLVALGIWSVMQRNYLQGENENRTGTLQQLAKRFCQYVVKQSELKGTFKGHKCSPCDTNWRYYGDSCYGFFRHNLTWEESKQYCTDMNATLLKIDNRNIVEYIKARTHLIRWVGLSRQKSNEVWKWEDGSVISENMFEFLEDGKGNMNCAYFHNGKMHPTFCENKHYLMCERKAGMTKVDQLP

B1: mutant rhodocytin derived from cell No. 3 (R28A and K31A) (ligand)
alpha: GLEDCDFGWSPYDQHCYQAFNEQKTWDEAEKFCRAQENGAHLASIESNGEADFVSWLISQKDELADEDYVWIGLRAQNKEQQCSSEWSDGSSVSYENLIDLHTKKCGALEKLTGFRKWVNYYCEQMHAFVCKLLPY
beta: DCPSGWSSYEGHCYKPFNEPKNWADAEAFCALQPKHSHLVSFQSAEEADFVVKLTRPRLKANLVWMGLSNIWHGCNWQWSDGARLNYKDWQEQSECLAFRGVHTEWLNMDCSSTCSFVCKFKA
modifications: α and β subunits are disulfide-linked. BN-PAGE shows a heterotrimer; each distinct subunit is given once.
notes: also called R28A, K31A
Does B1 bind?
Result: binds

From patent US20170320924A1 (UNIVERSITY OF YAMANASHI, published 2017)
